Laboratory results: article doi:10.1101/2024.07.14.603434 (bioRxiv, 2024)

Target: the molecule itself
Assay: SEC

B1: NagS (SCO4393), N-acetylglucosamine-6-phosphate dehydratase (enzyme, Streptomyces coelicolor, UniProt Q9K3V1 1-251, looked up)
chain: MSDHKPAGQFLDAAIDLLRRVRDEEADSIEAAGTLLADTVQNGGRLFAFGAGHSSLAAQDVVYRAGGLALMNLLTVPGVVGIDVMPATLGSALERVDGLASAVLDSSPLRAGDALVIISLSGRNALPVEMAMHARALGLRVIGVTSVAYASQTTSRHASGTFLKDHCDIVLDSKIAVGDAELTLDTVPAPFAPASTVVTAALMQAVTATAAATLADRGIEPPLLRSGNVDGGHEWNARVLEQYGERIFYRR
With B1 the “stoichiometry N” value was 2.
